Experimental data reported in patent US6984719B1, “Peptide antagonists of prostaglandin F2α receptor” (Hospital Sainte-Justine, priority 1998, dated 2006).
Square brackets hold non-standard residues; d marks the D form. Ends that are not written are not given here.

Experiments:
FP receptor = target: T1, FP receptor (Sus scrofa, UniProt C6GAG8); assay: Porcine eyecup model of ex vivo vasomotricity assay, PGF2α-induced constriction of retinal microvessels; set-up: species or system pig; details: for % Vasomotor response (of max constriction): compared to maximal constriction without peptide; for change of inhibitory activity of the peptide variant relative to the parent peptide: peptides at 100 μM, porcine retinal vasomotricity assay, structure-activity summary
T1 construct: from tissue; host or cells: eyecup / retinal microvessels of newborn pigs pretreated with ibuprofen
T1 sequence (C6GAG8 1-362): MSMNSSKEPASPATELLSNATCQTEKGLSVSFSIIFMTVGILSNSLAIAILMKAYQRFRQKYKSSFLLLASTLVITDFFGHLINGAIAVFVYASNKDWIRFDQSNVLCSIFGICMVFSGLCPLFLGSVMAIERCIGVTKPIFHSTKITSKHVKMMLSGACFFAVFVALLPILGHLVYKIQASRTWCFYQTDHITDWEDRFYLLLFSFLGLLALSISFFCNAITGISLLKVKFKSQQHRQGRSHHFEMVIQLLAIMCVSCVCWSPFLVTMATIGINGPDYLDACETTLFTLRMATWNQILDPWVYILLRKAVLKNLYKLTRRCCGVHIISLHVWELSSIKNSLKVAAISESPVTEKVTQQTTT
Excerpt: In order to see if the peptides could inhibit FP function using an ex vivo model, we chose porcine eyecup model, an ex vivo assay of vascular constriction in porcine retinas which we previously described and validated (Li et al., 1996 J. Pharmacol. Expt. Therapeut. 278: 370–377; Li et al., 1997 Am. J. Physiol. 273: R1283–90; Abran et al., 1997 Am. J. Physiol. 272: R995–1001). Since FP receptor densities in newborn vasculature are minimal due to down regulation by high levels of circulating prostaglandins in the perinatal period, the newborn pigs were treated with a prostaglandin synthetase blocker, ibuprofen (30 mg/Kg of bodyweight/8 h for 24 h) to increase the density of the receptors as well as their vasomotor effects. By inhibiting circulating prostaglandins, we were able to show potent inhibition of FP receptor-mediated second messenger synthesis as well as FP-mediated vascular constriction in this eyecup model.
To prepare eyecups, a circular incision was made 3–4 mm posterior to ora serrata to remove the […] segment and vitreous body with minimal handling of the retina. The remaining eyecup was fixed with pins to a wax base in a 20 ml tissue bath containing 20 ml of Kreb's buffer (pH 7.35–7.45), protease inhibitors, leupetin and aprotinin (10 μg/ml each), and equilibrated with 21% oxygen and 5% carbon dioxide at 37° C. The preparations were allowed to stabilize for 30 min. Peptides at 100 μM were added and incubation was continued for 30 min before the addition of PGF2α.
Cumulative concentration-responses of PGF2α, and TxA2 mimetic, U46619, (10^−10 to 10^−5 M) curves were constructed separately. To assess the reversibility of the antagonists, the eyecups were thoroughly washed (which would wash away the peptide) with incubation medium and concentration response curves for PGF2α were determined. The outer vessel diameter was recorded with a video camera mounted on a dissecting microscope (Zeiss M 400™) and the responses were quantified by a digital image analyzer (Sigma Scan Software, Jandel Scientific, Corte Madera, Calif.). Vascular diameter was recorded before and 10 min following the topical application of the agent.
^1Percent vasomotor response in the presence of 100 μM peptide is calculated as percent change in average vascular diameter produced by 10^−7 M PGF2α to the eyecup in the presence of the peptide compared to maximal constriction observed in the absence of the peptide.
^2Percent inhibition produced by each peptide is calculated as (100-percent vasomotor response).
Small letters indicate L-amino acids and capital letters indicate D-amino acids. I=isoleucine; L=leucine; G=glycine; H=histidine; R=Arginine; D=Aspartic acid; Y=Tyrosine; K=Lysine; A=Alanine; W=Tryptophan; E=Glutamic acid; F=Phenyl alanine; Q=Glutamine; N=Aspargine; P=Proline; S=Serine; X=Cyclohexyl alanine. Peptides were dissolved in DMSO freshly just before the experiment as 10 mM stocks and added to the eye cups 30 min before the addition of 10^−7 M PGF2α.
These peptides incorporate L- to D-amino acid changes, deletions, subtle variations in aromaticity, hydrogen bond donor status as opposed to ionic interactions and hydrophobicity.

human FP receptor = target: T2, human FP receptor (Homo sapiens, UniProt P43088); assay: PGF2α-induced phosphoinositide hydrolysis (inositol phosphate synthesis) in HEK293 cells expressing FP receptor; type: cell-based; details: HEK293 cells stably expressing human FP receptor; 1 μM PGF2α; read-out: half maximal inhibitory concentration, inositol phosphate synthesis
T2 construct: expressed in transfected cells
T2 sequence (P43088 whole entry): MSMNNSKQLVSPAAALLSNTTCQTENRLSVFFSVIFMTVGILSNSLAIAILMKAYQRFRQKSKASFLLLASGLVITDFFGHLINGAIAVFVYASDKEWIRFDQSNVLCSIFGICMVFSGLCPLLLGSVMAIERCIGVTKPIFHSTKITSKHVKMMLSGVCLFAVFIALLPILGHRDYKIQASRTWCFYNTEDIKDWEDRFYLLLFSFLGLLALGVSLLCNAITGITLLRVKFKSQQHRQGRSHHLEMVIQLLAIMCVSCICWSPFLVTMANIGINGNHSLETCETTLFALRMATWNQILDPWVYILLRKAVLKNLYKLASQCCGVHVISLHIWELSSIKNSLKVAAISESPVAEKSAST
Protocol: Both PCP-8 and -10 were tested in HEK293 cells expressing the human FP receptor. For this purpose, HEK 293 cells stably expressing human FP receptor were plated in 12-well plates in DMEM medium containing 10% fetal bovine serum, penicillin (10 U/ml) and streptomycin (10 μg/ml) and cultured in a humidified atmosphere containing 5% CO2 at 37° C. After the wells were 80% confluent, the cells were labeled with 2 μCi/ml of [^3H]-myo inositol overnight. Next day, the cells were washed once with PBS, and incubated in 0.5 ml of Kreb's buffer containing 10 mM LiCl and indicated concentrations of PCP peptides for 30 min. PGF2α at 1 μM was added to the cells and the incubation was carried out for an additional 30 min. The cells were solubilized with 0.1 N NaOH for 10 min and neutralized with 0.1 N formic acid. The lysates were collected and 1 ml each of methanol and chloroform were sequentially added and vortexed briefly. After centrifugation to separate the phases, inositol phosphates were separated by ion exchange chromatography as described below (Berridge, M. J. et al., 1983, Biochem. J. 212:473–482).
Briefly, the medium was discarded and the IP3 synthesis was stopped by adding 0.6 ml ice-cold methanol. The cells were scraped and collected into polypropylene tubes. Distilled water (0.5 ml) and chloroform (0.6 ml) were added and vigorously vortexed for 2 min. The phases were separated by centrifugation at 6000×g for 10 min. The aqueous phase was applied to AG-1X-8™ (Formate form) anion exchange columns (1 ml bed volume) and free inositol was eluted with 10 ml of water, followed by 60 mM ammonium formate in 0.1 M formic acid. Then, the inositol phosphates were eluted with 5 ml of 1.2 M ammonium formate in 0.1 M formic acid. After adding 3 volumes of scintillation cocktail (Optiphase-HiSafe III), the eluates were counted by scintillation spectrophotometry.
Data are expressed as fold stimulation of inositol phosphate synthesis by 1 μM PGF2α compared to the unstimulated controls. […] The half maximal inhibitory concentrations for both PCP-8 and -10 were slightly less than 100 μM.

[1] = 100 μM peptide, 10^−7 M PGF2α, calculated as 100-percent vasomotor response

Substance | % inhibition of maximal response (FP receptor; [1]) [%] | % Vasomotor response (of max constriction) (FP receptor; 100 μM peptide, 10^−7 M PGF2α) [%] | change of inhibitory activity of the peptide variant relative to the parent peptide (FP receptor) | Emax (FP receptor; 100 μM peptide, 10^−7 M PGF2α, calculated as 100-percent vasomotor response, read-out: % inhibition of maximal response) [%] | IC50 (human FP receptor) [µM]
ILAHRDYK (Peptide antagonist derived from the sequence of the Prostaglandin F2-alpha receptor.) [PCP-13.7] | 76.2 | 23.8 | does not change the activity | – | –
ILGFRDYK (Peptide antagonist derived from the sequence of the Prostaglandin F2-alpha receptor.) [PCP-13.11] | 87.0 | 13.0 | did not result in significant reduction of peptide inhibitory potency | – | –
ILGHQDYK (Peptide antagonist derived from the sequence of the Prostaglandin F2-alpha receptor.) [PCP-13.18] | 70.0 | 30.0 | affected the activity of PCP-13 moderately | – | –
ILGHRDYK (Peptide antagonist derived from the sequence of the Prostaglandin F2-alpha receptor.) [PCP-13] | 80.0 | 20.0 | increased the inhibitory potency dramatically | – | –
ILGHRNYK (Peptide antagonist derived from the sequence of the Prostaglandin F2-alpha receptor.) [PCP-13.14] | 59.7 | 40.3 | moderate loss of activity | – | –
ILGWRDYK (Peptide antagonist derived from the sequence of the Prostaglandin F2-alpha receptor.) [PCP-13.22] | 83.4 | 16.6 | did not result in significant reduction of peptide inhibitory potency | – | –
PCP-11: PCP-8 with the N-terminal hydrophobic dipeptide sequence removed (GHRDYK) | – | – | significant reduction in the inhibitory action | – | –
PCP-12: PCP-10 with the N-terminal hydrophobic dipeptide sequence removed (DRFYLL) | – | – | significant reduction in the inhibitory action | – | –
PCP-13.10: PCP-13 with aromatic residue Y substituted with E ([dI][dL]G[dH][dR][dD][dE][dK]) | – | – | completely abolished the inhibitory potency | – | –
PCP-13.23: PCP-13 with H changed to Y ([dI][dL]G[dY][dR][dD][dY][dK]) | – | – | significant reduction of peptide inhibitory potency | – | –
WEDRFYLL [PCP-10, wedrfyll] | – | 20.0 | – | 80 | < 100

Other lines, results leading:

% inhibition of maximal response (FP receptor; [1]) [%] | % Vasomotor response (of max constriction) (FP receptor; 100 μM peptide, 10^−7 M PGF2α) [%] | change of inhibitory activity of the peptide variant relative to the parent peptide (FP receptor) | Emax (FP receptor; 100 μM peptide, 10^−7 M PGF2α, calculated as 100-percent vasomotor response, read-out: % inhibition of maximal response) [%] | IC50 (human FP receptor) [µM] | Substance
50.4 | 49.6 | moderate gain of activity | – | – | ILGHRDY-amide ([dI][dL]G[dH][dR][dD][dY]-NH2) [PCP-13.20]
53.8 | 46.2 | moderate gain of activity | – | – | ILGHRDYK-amide ([dI][dL]G[dH][dR][dD][dY][dK]-NH2) [PCP-13.21]
53.2 | 46.8 | loss of activity | – | – | ILaHRDYK ([dI][dL]A[dH][dR][dD][dY][dK]; not fully specified (residue 3); printed as ILaHRDYK) [PCP-13.8]
– | – | complete loss of activity | – | – | PCP-13.9: PCP-13 with terminal lysine substituted with W ([dI][dL]G[dH][dR][dD][dY][dW])
– | – | loss of half of the inhibitory activity | – | – | PCP-13.12: PCP-13 with D changed to E ([dI][dL]G[dH][dR][dE][dY][dK])
– | – | complete loss of activity | – | – | PCP-13.15: PCP-13 with deletion of terminal lysine ([dI][dL]G[dH][dR][dD][dY])
– | – | loss of activity | – | – | PCP-13.16: PCP-13 with glycine changed to proline ([dI][dL][dP][dH][dR][dD][dY][dK])
– | – | loss of activity | – | – | PCP-13.17: PCP-13 with the glycine residue deleted ([dI][dL][dH][dR][dD][dY][dK])
– | – | drastic loss of activity | – | – | PCP-13.19: PCP-13 with a serine substitution of D ([dI][dL]G[dH][dR][dS][dY][dK])
88.1 | 11.9 | – | – | – | SNVLCSIF (Peptide antagonist derived from the sequence of the Prostaglandin F2-alpha receptor.) [PCP-15]
64.0 | 36.0 | – | – | – | YQDRFYLL (Peptide antagonist derived from the sequence of the Prostaglandin F2-alpha receptor.) [PCP-14]
